Source: paper PMC3967765 (Archives of biochemistry and biophysics, 2014)

Assays:
[1] = target: T1, huCOX-2 (human cyclooxygenase-2) (Homo sapiens, UniProt P35354, N580A)
T1 sequence (P35354 18-604 N580A): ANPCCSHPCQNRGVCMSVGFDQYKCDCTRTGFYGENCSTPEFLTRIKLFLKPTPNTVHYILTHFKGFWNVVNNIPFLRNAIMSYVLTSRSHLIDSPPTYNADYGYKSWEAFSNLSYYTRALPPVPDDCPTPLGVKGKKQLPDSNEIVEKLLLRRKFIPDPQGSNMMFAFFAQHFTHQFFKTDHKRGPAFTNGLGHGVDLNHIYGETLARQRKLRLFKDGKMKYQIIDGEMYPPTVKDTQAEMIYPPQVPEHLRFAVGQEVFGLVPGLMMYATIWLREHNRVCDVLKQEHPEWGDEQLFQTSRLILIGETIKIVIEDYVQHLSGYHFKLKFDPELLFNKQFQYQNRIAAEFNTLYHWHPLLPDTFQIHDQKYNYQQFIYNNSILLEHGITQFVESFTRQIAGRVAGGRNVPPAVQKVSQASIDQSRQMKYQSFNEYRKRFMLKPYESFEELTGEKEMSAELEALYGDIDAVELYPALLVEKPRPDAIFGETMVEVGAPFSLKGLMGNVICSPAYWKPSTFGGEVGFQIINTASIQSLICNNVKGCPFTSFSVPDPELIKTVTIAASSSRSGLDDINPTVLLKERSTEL

[2] = target: T1, huCOX-2 (human cyclooxygenase-2); conditions: oxygen electrode
SEC = target: the molecule itself; assay: SEC
purified protein [3] = substrate: CC/C=C\C/C=C\C/C=C\C/C=C\C/C=C\CCCC(=O)O; assay: purified protein; conditions: heme (Fe3+-protoporphyrin IX)
purified protein [4] = substrate: CCCCC/C=C\C/C=C\C/C=C\C/C=C\CCCC(=O)OCC(O)CO; assay: purified protein; conditions: heme (Fe3+-protoporphyrin IX)
purified protein [5] = substrate: CCCCC/C=C\C/C=C\C/C=C\C/C=C\CCCC(=O)O; assay: purified protein; conditions: heme (Fe3+-protoporphyrin IX)

Cc1ccc(Cl)c(Nc2ccccc2C(=O)O)c1Cl [Meclo, meclofenamic acid]
oxygen electrode, 50 μM inhibitor, 30 min pre-incubation [1]: Flurbiprofen, indomethacin, meclofenamic acid, and celecoxib caused near complete inhibition of cyclooxygenase activity.

COc1ccc2cc([C@H](C)C(=O)O)ccc2c1 [Napx, naproxen]
% loss of activity [2]: 60-70 % loss of activity

B1: FLAG N580A murine (mu) COX-2 (enzyme, UniProt Q05769 18-604, looked up)
chain: ANPCCSNPCQNRGECMSTGFDQYKCDCTRTGFYGENCTTPEFLTRIKLLLKPTPNTVHYILTHFKGVWNIVNNIPFLRSLIMKYVLTSRSYLIDSPPTYNVHYGYKSWEAFSNLSYYTRALPPVADDCPTPMGVKGNKELPDSKEVLEKVLLRREFIPDPQGSNMMFAFFAQHFTHQFFKTDHKRGPGFTRGLGHGVDLNHIYGETLDRQHKLRLFKDGKLKYQVIGGEVYPPTVKDTQVEMIYPPHIPENLQFAVGQEVFGLVPGLMMYATIWLREHNRVCDILKQEHPEWGDEQLFQTSRLILIGETIKIVIEDYVQHLSGYHFKLKFDPELLFNQQFQYQNRIASEFNTLYHWHPLLPDTFNIEDQEYSFKQFLYNNSILLEHGLTQFVESFTRQIAGRVAGGRNVPIAVQAVAKASIDQSREMKYQSLNEYRKRFSLKPYTSFEELTGEKEMAAELKALYSDIDVMELYPALLVEKPRPDAIFGETMVELGAPFSLKGLMGNPICSPQYWKPSTFGGEVGFKIINTASIQSLICNNVKGCPFTSFNVQDPQPTKTATIAASASHSRLDDINPTVLIKRRSTEL
stoichiometry N (SEC): 2 | Km (purified protein [3]): 1.9 µM | kcat (purified protein [3]): 6.3 s⁻¹ | kcat/Km (purified protein [3]): 3.3e+06 M⁻¹ s⁻¹ | Km (purified protein [4]): 6.8 µM | kcat (purified protein [4]): 30.9 ± 0.7 s⁻¹ | kcat/Km (purified protein [4]): 4.5e+06 M⁻¹ s⁻¹ | Km (purified protein [5]): 6.8 µM | kcat (purified protein [5]): 36.1 s⁻¹ | kcat/Km (purified protein [5]): 5.3e+06 M⁻¹ s⁻¹
